Results taken from publication PMC2957810 (Traffic (Copenhagen, Denmark), 2009).

Tests used:
Assay in all cases: co-IP
[1] = biological target: Δ79-82ALP (dimerization mutant of pro-ALP) (S. cerevisiae) (UniProt P11491)
[2] = biological target: pro-ALP (yeast vacuolar alkaline phosphatase, pro-form) (S. cerevisiae) (UniProt P11491)
co-IP = biological target: the molecule itself

Row | percent of total Erv26p recovered in the IP [1] | percent of total Erv26p recovered in the IP [2] | Molecule | ratio of untagged to HA-tagged pro-ALP immunoprecipitated (co-IP)
1 | 1% | 2.5% | Erv26p (receptor) | –
2 | – | – | pro-ALP (yeast vacuolar alkaline phosphatase, pro-form) (natural protein, S. cerevisiae, UniProt P11491 1-566, looked up) MMTHTLPSEQTRLVPGSDSSSRPKKRRISKRSKIIVSTVVCIGLLLVLVQLAFPSSFALRSASHKKKNVIFFVTDGMGPASLSMARSFNQHVNDLPIDDILTLDEHFIGSSRTRSSDSLVTDSAAGATAFACALKSYNGAIGVDPHHRPCGTVLEAAKLAGYLTGLVVTTRITDATPASFSSHVDYRWQEDLIATHQLGEYPLGRVVDLLMGGGRSHFYPQGEKASPYGHHGARKDGRDLIDEAQSNGWQYVGDRKNFDSLLKSHGENVTLPFLGLFADNDIPFEIDRDEKEYPSLKEQVKVALGALEKASNEDKDSNGFFLMVEGSRIDHAGHQNDPASQVREVLAFDEAFQYVLEFAENSDTETVLVSTSDHETGGLVTSRQVTASYPQYVWYPQVLANATHSGEFLKRKLVDFVHEHKGASSKIENFIKHEILEKDLGIYDYTDSDLETLIHLDDNANAIQDKLNDMVSFRAQIGWTTHGHSAVDVNIYAYANKKATWSYVLNNLQGNHENTEVGQFLENFLELNLNEVTDLIRDTKHTSDFDATEIASEVQHYDEYYHELTN | 0.38
3 | – | – | Δ79-82ALP (dimerization mutant of pro-ALP) (natural protein, S. cerevisiae, UniProt P11491 1-566, looked up) MMTHTLPSEQTRLVPGSDSSSRPKKRRISKRSKIIVSTVVCIGLLLVLVQLAFPSSFALRSASHKKKNVIFFVTDGMGSMARSFNQHVNDLPIDDILTLDEHFIGSSRTRSSDSLVTDSAAGATAFACALKSYNGAIGVDPHHRPCGTVLEAAKLAGYLTGLVVTTRITDATPASFSSHVDYRWQEDLIATHQLGEYPLGRVVDLLMGGGRSHFYPQGEKASPYGHHGARKDGRDLIDEAQSNGWQYVGDRKNFDSLLKSHGENVTLPFLGLFADNDIPFEIDRDEKEYPSLKEQVKVALGALEKASNEDKDSNGFFLMVEGSRIDHAGHQNDPASQVREVLAFDEAFQYVLEFAENSDTETVLVSTSDHETGGLVTSRQVTASYPQYVWYPQVLANATHSGEFLKRKLVDFVHEHKGASSKIENFIKHEILEKDLGIYDYTDSDLETLIHLDDNANAIQDKLNDMVSFRAQIGWTTHGHSAVDVNIYAYANKKATWSYVLNNLQGNHENTEVGQFLENFLELNLNEVTDLIRDTKHTSDFDATEIASEVQHYDEYYHELTN | 0.05
